Experimental data as given in PMC4479986, “An Alternative Phosphorylation Switch in Integrin β2 (CD18) Tail for Dok1 Binding” (Scientific Reports, 2015).
Square brackets hold non-standard residues; d marks the D form. Ends that are not written are not given here. Peptide text beside a SMILES is read from it. pS = N[C@@H](COP(=O)(O)O)C(=O)O

What was measured:
[1] = molecular target: T1, Dok1 PTB domain (Homo sapiens, UniProt Q99704); assay: 15N-1H HSQC NMR chemical shift titration of Dok1 PTB domain with integrin β2 tail peptides; format: binding; conditions: Table 2; 15N-1H HSQC combined chemical shift perturbation, 0.7 mM 15N-Dok1 PTB domain, 50 mM sodium phosphate pH 6.0, 100 mM NaCl, 2 mM DTT, 20 min equilibration; depletion model fit; Kd ± S.E.; read-out: Dissociation constant Kd
T1 construct: Human Dok1 PTB domain (Q154 – G256; Swiss-Prot Q99704, number as Q1-G103); six His-tag (N); made in house; host or cells: Escherichia coli Rosetta
T1 sequence (Q99704 154-256): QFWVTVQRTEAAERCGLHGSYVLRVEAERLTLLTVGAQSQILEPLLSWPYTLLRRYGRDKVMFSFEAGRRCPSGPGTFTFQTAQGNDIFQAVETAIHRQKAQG
Procedure: Human Dok1 PTB domain (Q154 – G256; Swiss-Prot Q99704, number as Q1-G103) was sub-cloned into the pET14b vector with an N-terminal six His-tag. Escherichia coli Rosetta cells were transformed with the expression plasmid and grown at 37 °C either in LB or M9 medium containing [^15N] ammonium chloride (Cambridge Isotope Laboratories). Expression of recombinant protein was induced by adding 1 mM IPTG to cells (OD600 0.6–0.7) followed by incubation for 6–12 h at 16 °C. Cells were centrifuged and re-suspended in Buffer A (20 mM Tris-HCl buffer, pH 8.0) followed by affinity purification on a Nickel-NTA column (Qiagen). […] Proteins were eluted at a flow rate of 0.5 ml/min and monitored by absorbance at λ = 276 nm.
All NMR experiments were performed on a Bruker DRX 600 MHz spectrometer equipped with an actively shielded cryoprobe. NMR data were processed using the NMRPipe and NMRDraw suite and analysed by Sparky (T.D. Goddard and D.G. Kneller, University of California, San Francisco). […] The stock solutions of the above mentioned peptides were prepared in the same buffer (100 mM NaCl, 2 mM DTT, 50 mM sodium phosphate, pH 6.0) used for the Dok1 PTB domain NMR experiments, ^15N-^1H HSQC spectra were recorded at different protein:peptide molar ratios (1:0.1, 1:0.2, 1:0.3, 1:0.5, 1:1, 1:1.5, 1:2, 1:2.5 and 1:3) for all of the above mentioned peptides except for the unphosphorylated KT15. […]

[2] = Solubility of β2 tail peptide as observed in NMR sample preparation; format: physicochemical; conditions: at high concentrations, NMR buffer
[3] = molecular target: T2, Human Dok1 PTB domain (Q154-G256) (human, UniProt Q99704 154-256); assay: NMR titration; 15N-1H HSQC of 15N-labelled Dok1 PTB domain at 0.7 mM, unlabelled peptide added (protein:peptide 1:0.1 to 1:3; KT15 1:0.5 to 1:6); 100 mM NaCl, 2 mM DTT, 50 mM sodium phosphate, pH 6.0; Kd from combined chemical shift changes, depletion model; apparent for KT15; conditions: both partners purified
T2 construct: Docking protein 1 (Dok1; p62Dok), human, PTB domain Q154-G256 of Swiss-Prot Q99704. numbers count on: the construct, renumbered Q1-G103 (Q154 = Q1); pET14b vector; no removal of the His tag is described; Residue numbers of the PTB domain in the results (Arg54, Arg69 ...) count on Q1-G103; also called PTB domain of Dok1; source: E. coli Rosetta, purified (Nickel-NTA, gel filtration on Superdex …)
T2 sequence (looked up): T1 sequence (Q99704 154-256)

[4] = system: Dok1-CFP / integrin β2-YFP association in K562 cells; assay: YFP-photobleach FRET between Dok1-CFP and integrin β2-YFP in K562 cells; format: cell-based, human; conditions: K562 stably expressing Dok1-CFP, transfected with integrin αL, β2-YFP and CCR5; RANTES 50 ng/ml, 10 min, 37 °C; 39 cells with, 60 without; p < 0.05
Procedure: K562 cells (ATCC, Manassas, VA) were cultured in RPMI1640 full-medium containing 10% (v/v) FBS and antibiotics. Cells (2 × 10^6) were transfected with integrin αL plasmid (9 μg), integrin β2-YFP plasmid (WT or mutant) (9 μg) and Dok1-CFP or CFP plasmid (12 μg) by electroporation using the Neon electroporation kit (Invitrogen) on a MP-100 pipette-type microporator (Invitrogen). YFP-photobleach FRET assay was performed essentially as described. Immunoblottings of transfected K562 lysates were performed using rabbit anti-GFP antibody (Life Technologies, Grand Island, NY), rabbit anti-Dok1 antibody (Abcam, Cambridge, MA) and HRP-conjugated goat anti-rabbit (Avansta, Menlo Park, CA) followed by ECL detection. To generate K562 cells stably expressing Dok1-CFP, cells were transfected with Dok1-CFP plasmid by electroporation followed by serial dilutions into 96-well cell culture microtitre plates to select for stable clones in the presence of antibiotic G418 (0.6 mg/ml). Clones expressing Dok1-CFP were screened by flow cytometry analyses and verified by immunoblotting with anti-GFP antibody (Life Technologies, Grand Island, NY). […] Samples were acquired and examined on a FACSCalibur flow cytometer and data analyzed using the Flowjo software (Tree Star Inc. Ashland, OR). […]

In the case of CC(C)C[C@H](NC(=O)[C@@H]1CCCN1C(=O)[C@H](CC(N)=O)NC(=O)[C@H](CC(=O)O)NC(=O)[C@H](CC(N)=O)NC(=O)[C@H](CC(N)=O)NC(=O)[C@H](Cc1c[nH]c2ccccc12)NC(=O)[C@H](CCC(N)=O)NC(=O)[C@H](CO)NC(=O)[C@@H](N)CCCCN)C(=O)N[C@@H](Cc1ccccc1)C(=O)N[C@@H](CCCCN)C(=O)N[C@@H](CO)C(=O)N[C@@H](C)C(=O)N[C@H](C(=O)O)[C@@H](C)O [KT15] (H-KSQWNNDNPLFKSAT-OH), the Kd [1] is reported as 16000 ± 300 µM.

For CC(C)C[C@H](NC(=O)[C@@H]1CCCN1C(=O)[C@H](CC(N)=O)NC(=O)[C@H](CC(=O)O)NC(=O)[C@H](CC(N)=O)NC(=O)[C@H](CC(N)=O)NC(=O)[C@H](Cc1c[nH]c2ccccc12)NC(=O)[C@H](CCC(N)=O)NC(=O)[C@H](CO)NC(=O)[C@@H](N)CCCCN)C(=O)N[C@@H](Cc1ccccc1)C(=O)N[C@@H](CCCCN)C(=O)N[C@@H](COP(=O)(O)O)C(=O)N[C@@H](C)C(=O)N[C@H](C(=O)O)[C@@H](C)O [pSer756-KT15] (H-KSQWNNDNPLFK[pS]AT-OH), the Kd [1] was 189 ± 30 µM.

With “KALIHLSDLREYRRFEKEKLKSQWNNDNPLFKSATTTVMNPKFAES [full-length unphosphorylated β2 tail, Synthetic full-length integrin β2 (CD18) cytoplasmic tail, residues 724-769]” the Solubility in words [2] was “limited solubility”.

B1: Full-length integrin β2 tail peptide phosphorylated at Ser745 (peptide)
chain: KALIHLSDLREYRRFEKEKLK[pS]QWNNDNPLFKSATTTVMNPKFAES
Work on B1 yielded a Kd [3] of 215 µM.

B2: RANTES: Chemokine, ligand of CCR5, used to activate cells (Calbiochem) (protein, UniProt P13501 24-91, looked up)
C-C motif chemokine 5: SPYSSDTTPCCFAYIARPLPRAHIKEYFYTSGKCSNPAVVFVTRKNRQVCANPEKKWVREYINSLEMS
With B2 the “FRET signal Dok1-CFP / integrin β2-YFP compared with untreated cells” value [4] was “significantly lower”.

B3: Full-length integrin β2 tail peptide phosphorylated at Ser756 (peptide)
chain: KALIHLSDLREYRRFEKEKLKSQWNNDNPLFK[pS]ATTTVMNPKFAES
With B3 the Kd [3] was 98 µM.

B4: KT18EE, integrin β2 tail fragment (K742-T759) with Ser745 and Ser756 substituted by Glu (peptide)
peptide: KLKEQWNNDNPLFKEATT
notes: also called Ser to Glu substituted KT18 peptide; Ser to Glu substituted β2 tail peptide; source: synthetic peptide, bought: GLBioChem, Shanghai (purity >95%)
For B4, the Kd [3] was 8490 µM.
